Source: PMC7463755, “C7-Prenylation of Tryptophan-Containing Cyclic Dipeptides by 7-Dimethylallyl Tryptophan Synthase Significantly Increases the Anticancer and Antimicrobial Activities” (Molecules, 2020)

What was measured:
Experiment in all cases: HPLC product formation, Michaelis-Menten
Format in all cases: biochemical, Aspergillus fumigatus
[1] = substrate: CC(C)=CCOP(=O)(O)OP(=O)(O)O; conditions: 1 mM 1a (cyclo-L-Trp-Gly), 5 mM CaCl2, 37 °C, prenyl donor
Description: (§1) HPLC product formation, Michaelis-Menten on 7-DMATS (7-dimethylallyl tryptophan synthase)

[2] = substrate: CC(C)C[C@@H]1NC(=O)[C@H](Cc2c[nH]c3ccccc23)NC1=O; conditions: 2 mM DMAPP, 5 mM CaCl2, 37 °C, prenyl acceptor
Description: as §1

[3] = substrate: C[C@@H]1NC(=O)[C@H](Cc2c[nH]c3ccccc23)NC1=O; conditions: 2 mM DMAPP, 5 mM CaCl2, 37 °C, prenyl acceptor
Description: as §1

[4] = substrate: O=C1CNC(=O)[C@H](Cc2c[nH]c3ccccc23)N1; conditions: 2 mM DMAPP, 5 mM CaCl2, 37 °C, prenyl acceptor
Description: as §1

[5] = substrate: O=C1N[C@@H](Cc2c[nH]c3ccccc23)C(=O)N[C@H]1Cc1c[nH]c2ccccc12; conditions: 2 mM DMAPP, 5 mM CaCl2, 37 °C, prenyl acceptor
Description: as §1

[6] = substrate: O=C1N[C@@H](Cc2c[nH]c3ccccc23)C(=O)N[C@H]1Cc1ccc(O)cc1; conditions: 2 mM DMAPP, 5 mM CaCl2, 37 °C, prenyl acceptor
Description: as §1

[7] = substrate: O=C1N[C@@H](Cc2c[nH]c3ccccc23)C(=O)N[C@H]1Cc1ccccc1; conditions: 2 mM DMAPP, 5 mM CaCl2, 37 °C, prenyl acceptor
Description: as §1

[8] = substrate: [H][C@@]12CCCN1C(=O)[C@H](Cc1c[nH]c3ccccc13)NC2=O; conditions: 2 mM DMAPP, 5 mM CaCl2, 37 °C, prenyl acceptor
Description: as §1

B1: 7-DMATS (7-dimethylallyl tryptophan synthase) (Aspergillus fumigatus Af293) (protein)
chain: MSIGAEIDSLVPAPPGLNGTAAGYPAKTQKELSNGDFDAHDGLSLAQLTPYDVLTAALPLPAPASSTGFWWRETGPVMSKLLAKANYPLYTHYKYLMLYHTHILPLLGPRPPLENSTHPSPSNAPWRSFLTDDFTPLEPSWNVNGNSEAQSTIRLGIEPIGFEAGAAADPFNQAAVTQFMHSYEATEVGATLTLFEHFRNDMFVGPETYAALRAKIPEGEHTTQSFLAFDLDAGRVTTKAYFFPILMSLKTGQSTTKVVSDSILHLALKSEVWGVQTIAAMSVMEAWIGSYGGAAKTEMISVDCVNEADSRIKIYVRMPHTSLRKVKEAYCLGGRLTDENTKEGLKLLDELWRTVFGIDDEDAELPQNSHRTAGTIFNFELRPGKWFPEPKVYLPVRHYCESDMQIASRLQTFFGRLGWHNMEKDYCKHLEDLFPHHPLSSSTGTHTFLSFSYKKQKGVYMTMYYNLRVYST
notes: recombinant, overproduced in E. coli and purified as in Kremer et al; vector pQE60 named
Km [1]: 79.6 µM
Vmax [1]: 0.072 µM/min
kcat [1]: 0.0693 s⁻¹
kcat/Km [1]: 871 M⁻¹ s⁻¹
Km [2]: 823.2 µM
Vmax [2]: 0.0654 µM/min
kcat [2]: 0.0586 s⁻¹
kcat/Km [2]: 71.2 M⁻¹ s⁻¹
Km [3]: 867.8 µM
Vmax [3]: 0.0141 µM/min
kcat [3]: 0.0127 s⁻¹
kcat/Km [3]: 14.6 M⁻¹ s⁻¹
Km [4]: 169.7 µM
Vmax [4]: 0.145 µM/min
kcat [4]: 0.131 s⁻¹
kcat/Km [4]: 770 M⁻¹ s⁻¹
Km [5]: 225.8 µM
Vmax [5]: 0.0459 µM/min
kcat [5]: 0.0413 s⁻¹
kcat/Km [5]: 183 M⁻¹ s⁻¹
Km [6]: 562.4 µM
Vmax [6]: 0.0515 µM/min
kcat [6]: 0.0464 s⁻¹
kcat/Km [6]: 82.4 M⁻¹ s⁻¹
Km [7]: 102.9 µM
Vmax [7]: 0.0359 µM/min
kcat [7]: 0.0323 s⁻¹
kcat/Km [7]: 314 M⁻¹ s⁻¹
Km [8]: 880.1 µM
Vmax [8]: 0.0228 µM/min
kcat [8]: 0.0205 s⁻¹
kcat/Km [8]: 23.3 M⁻¹ s⁻¹
